Test results published in the Human Domainome abundance scans (Beltran et al. 2025).
± gives the uncertainty stated by the source.

B1: Chromodomain-helicase-DNA-binding protein 7, residues 2564 to 2605; numbered along this chain, Q9P2D1 (parent)
chain: DPDTRIPVINLEDGTRLVGEDAPKNKDLVEWLKLHPTYTVDM
B2: Histone H1t, residues 44 to 112; numbered along this chain, P22492 (parent)
chain: VSKLITEALSVSQERVGMSLVALKKALAAAGYDVEKNNSRIKLSLKSLVNKGILVQTRGTGASGSFKLS

Variants of: B1
Experiment: abundance fitness (aPCA) (normalised: wild type 0, dead -1); higher = more abundant; growth selection in yeast, the domain comes from the species named
Details: Homo sapiens

Abundance fitness of substitutions, site by site:
R5: C -0.27 ± 0.23
T4: I -0.115 ± 0.14, P -0.286 ± 0.12
D1: L -0.43 ± 0.062, V -0.184 ± 0.063, A -0.69 ± 0.093, Y -0.298 ± 0.12, F 0.073 ± 0.29, R -1 ± 0.11, G -0.901 ± 0.1, C -0.283 ± 0.1, S -0.237 ± 0.081, E -1.19 ± 0.23
D3: T -0.182 ± 0.05, A -0.283 ± 0.052, E 0.106 ± 0.057, V -0.335 ± 0.095, C -0.749 ± 0.22, L -0.122 ± 0.052, R -0.256 ± 0.055, F -0.259 ± 0.11, Q -0.109 ± 0.073, M -0.063 ± 0.059, W -0.53 ± 0.11, S -0.137 ± 0.051, I -0.54 ± 0.094, H 0.089 ± 0.087, G -0.384 ± 0.053
P2: C 0.148 ± 0.07, G -0.074 ± 0.066, A -0.031 ± 0.059, H -0.737 ± 0.18, D -0.301 ± 0.19, L -0.179 ± 0.06, W -0.02 ± 0.06, F -0.513 ± 0.24, I -0.078 ± 0.1, R 0.161 ± 0.071, S 0.017 ± 0.062, Q 0.182 ± 0.059, T 0.179 ± 0.072

Variants of: B2
Experiment: as above
Details: Homo sapiens

Abundance fitness, by site and new letter:
A62: K 0.054 ± 0.026, N 0.073 ± 0.045, D 0.008 ± 0.11, P -0.013 ± 0.026, Q 0.021 ± 0.025, H -0.054 ± 0.042, E 0.133 ± 0.037, T -0.006 ± 0.026, R -0.072 ± 0.028, G 0.104 ± 0.03
K51: T -0.212 ± 0.051, V -0.481 ± 0.042, Q -0.065 ± 0.041, Y -1.1 ± 0.34, R 0.132 ± 0.062, W -0.557 ± 0.13, S -0.161 ± 0.05
I53: R -0.099 ± 0.068, C -0.153 ± 0.063, S -0.081 ± 0.038, M -0.054 ± 0.048, T -0.082 ± 0.058, F -0.031 ± 0.042, P -0.202 ± 0.041, W -0.062 ± 0.075, A -0.118 ± 0.058, L -0.067 ± 0.029, Y -0.184 ± 0.056, E -0.002 ± 0.053, Q 0.033 ± 0.046, H -0.095 ± 0.058, G -0.363 ± 0.13, V -0.025 ± 0.045
S65: N 0.008 ± 0.073, H -0.084 ± 0.08, A 0.031 ± 0.046, F -0.146 ± 0.17, R -0.285 ± 0.03, K -0.049 ± 0.029, T 0.062 ± 0.03, G -0.003 ± 0.039, Q 0.039 ± 0.031, E 0.175 ± 0.053
G64: R -0.026 ± 0.039, S 0.046 ± 0.03, P 0.168 ± 0.03, Q 0.085 ± 0.055, F -0.067 ± 0.057, V 0.154 ± 0.054, M 0.165 ± 0.043, E 0.054 ± 0.14, Y -0.051 ± 0.081, L 0.05 ± 0.031, K 0.031 ± 0.069, A 0.196 ± 0.051, N -0.373 ± 0.29, I 0.103 ± 0.12, H -0.209 ± 0.088, C 0.275 ± 0.063, W -0.097 ± 0.039, D -0.013 ± 0.21, T 0.11 ± 0.04
S63: I -0.045 ± 0.057, E 0.152 ± 0.063, F -0.028 ± 0.051, G 0.085 ± 0.044, T 0.004 ± 0.039, Q 0.057 ± 0.04, L 0.006 ± 0.028, C -0.54 ± 0.21, P -0.027 ± 0.033, V -0.006 ± 0.046, R -0.133 ± 0.044, N -0.113 ± 0.083, K -0.019 ± 0.043, H 0.025 ± 0.058, Y -0.204 ± 0.06, D 0.029 ± 0.08
T60: A 0.074 ± 0.042, W -0.123 ± 0.085, I -0.115 ± 0.059, Y -0.218 ± 0.047, F -0.236 ± 0.056, Q -0.02 ± 0.037, D 0.133 ± 0.078, G -0.033 ± 0.044, E -0.012 ± 0.074, C -0.042 ± 0.082, R -0.126 ± 0.045, M 0.062 ± 0.04, P 0.025 ± 0.029, V -0.038 ± 0.055, K 0.013 ± 0.043, H -0.076 ± 0.05, N -0.036 ± 0.051, L -0.102 ± 0.031
R58: F -0.115 ± 0.068, E 0.028 ± 0.04, D 0.022 ± 0.052, G 0.205 ± 0.03, V -0.089 ± 0.034, W -0.151 ± 0.042, Q 0.036 ± 0.038, S 0.103 ± 0.035, C -0.121 ± 0.057, L -0.073 ± 0.031, M -0.077 ± 0.048, I -0.09 ± 0.08, H -0.041 ± 0.065, P -0.02 ± 0.034, K 0.155 ± 0.048, A 0.078 ± 0.031, N 0.227 ± 0.074, Y -0.246 ± 0.076
S69: Y 0.171 ± 0.08, A 0.044 ± 0.049, F -0.058 ± 0.075, R -0.151 ± 0.041, M -0.186 ± 0.058, W 0.173 ± 0.05, G -0.218 ± 0.087, T -0.029 ± 0.044, Q -0.102 ± 0.091, K -0.012 ± 0.095, H -0.465 ± 0.21, P -0.115 ± 0.039
